From patent US20260063625A1, “COMPOSITIONS FOR AND METHODS OF DETECTING FOOD TOXINS” (priority 2022, published 2026)
Where a chain is given by its changes, count along the chain named. Names and notes keep the numbering of the source.

B1: NpSxph: Saxiphilin of Nanorana parkeri, High Himalaya frog, SEQ ID NO:2 (protein, listed as Nanorana parkeri)
chain: MALTFHTALYFTIVGLSFAASDARHVQWCTISHLEQKKCNDLVGSCNVPDITLACVYRSSTENCMAAIKDGQADAMFLDSGDVYKASLDHYNLKPIIAEPYSLHRELTKCLKHRQESLGGDKMVKGRYIPQCDEKGNYHPVQCHASTGYCWCVNANGEKIEGTNTTPVQTPPTCPSQVLTKCLKERQEALGGKRIAIGRYIPQCDEQGNYRPMQCHGSTGYCWCVNAIGEKIEGTNTPPGNTQPTCQSHDWDTCHYAVAVVKNSSTFQFGQLKGKRSCHSGLSKTDGWNAPVNVFVEKKLLPWDGLAKGSIERAVSKFFSASCIPGATETNLCKQCIGEEEKKCKSSHDEPYYGDHGAFRCLQEDKGDVAFLKNTALPDEHSGVYELLCPDNTRKPLNKYKECNLGKVPADAVVTRKAGDKTKDINDFLLEAQKKKCKLFGSPHGKDLMFDDSTTHLAPLPSEIDAFFFLGVKWYNAMKALTEDVKLPSKNKVRWCTINKPEMMKCKDWAAVSGGAIACTEASCPEHCVKQILKGEADAVTLDVQYMYMALMCGLLPAVEEYPNKDDFHPCQIPGSTIKDFGTKRAVALVKKSNKDIKWNNLKGKKSCHTHVGDIPGWVIPAGLISNQNDNIDIESFFGESCAPGSDTNSKLCKLCIGDPENPKASTRCSLSDKEAYYGNEGAFRCLVEKGDVAFVPHTVVFANTDGKNPAEWAKDLKSEDFEILCLDGSRAPVTNYRGCNLSGLPPRAIVTREESVSDVVRILINQQSLYGRNGFEKDMFQMFSSAKGQNLLFNDETQCLIEFDRQPKDIMEDYFGVRYYTAVYSASRSAVPSELIPACTFKHC
B2: RcSxph: Saxiphilin of Rana (Lithobates) catesbeianus, American bullfrog, SEQ ID NO:1 (protein)
chain: MAPTFQTALFFTIISLSFAAPNAKQVRWCAISDLEQKKCNDLVGSCNVPDITLVCVLRSSTEDCMTAIKDGQADAMFLDSGEVYEASKDPYNLKPIIAEPYSSNRDLQKCLKERQQALAKKMIGHYIPQCDEKGNYQPQQCHGSTGHCWCVNAMGEKISGTNTPPGQTRATCERHELPKCLKERQVALGGDEKVLGRFVPQCDEKGNYEPQQFHGSTGYSWCVNAIGEEIAGTKTPPGKIPATCQKHDLVTTCHYAVAMVKKSSAFQFNQLKGKRSCHSGVSKTDGWKALVTVLVEKKLLSWDGPAKESIQRAMSKFFSVSCIPGATQTNLCKQCKGEEGKNCKNSHDEPYYGNYGAFRCLKEDMGDVAFLRSTALSDEHSEVYELLCPDNTRKPLNKYKECNLGTVPAGTVVTRKISDKTEDINNFLMEAQKRQCKLFSSAHGKDLMFDDSTLQLALLSSEVDAFLYLGVKLFHAMKALTGDAHLPSKNKVRWCTINKLEKMKCDDWSAVSGGAIACTEASCPKGCVKQILKGEADAVKLEVQYMYEALMCGLLPAVEEYHNKDDFGPCKTPGSPYTDFGTLRAVALVKKSNKDINWNNIKGKKSCHTGVGDIAGWVIPVSLIRRQNDNSDIDSFFGESCAPGSDTKSNLCKLCIGDPKNSAANTKCSLSDKEAYYGNQGAFRCLVEKGDVAFVPHTVVFENTDGKNPAVWAKNLKSEDFELLCLDGSRAPVSNYKSCKLSGIPPPAIVTREESISDVVRIVANQQSLYGRKGFEKDMFQLFSSNKGNNLLFNDNTQCLITFDRQPKDIMEDYFGKPYYTTVYGASRSAMSSELISACTIKHC
B3: I782A: RcSxph mutant, alanine for isoleucine at position 782 (protein)
chain: B2 chain with I801A
B4: E540A: RcSxph mutant E540A (protein)
chain: B2 chain with E559A
B5: D794A: RcSxph mutant D794A (protein)
chain: B2 chain with D813A
B6: Y558I: RcSxph mutant, isoleucine for tyrosine at position 558 (protein)
chain: B2 chain with Y577I
B7: P727A: RcSxph mutant P727A (protein)
chain: B2 chain with P746A

tested on: not given; assay: not given; assay type: binding; conditions: 1.1 μM Sxph, 0-20 μM STX

Molecule | DTm ([…]Tm=TmSxph+20 μM toxin−TmSxph), STX
B1 | 3.6 °C
B2 | 3.6 °C
B3 | DTm increases relative to wild-type
B4 | complete loss of the thermal shift
B5 | complete loss of the thermal shift

tested on: not listed separately; assay: Fluorescence polarization (FP) binding to fluorescein labeled STX; conditions: […]G = RT ln (Kd(XSxph)/Kd(RcSxph)); T = 298K
Experimental: […]; Measurements were performed at 25° C. on a Synergy H1 microplate reader (BioTek) using the polarization filter setting (excitation 485 nm, emission 528 nm). […]. The dissociation constants were calculated using GraphPad Prism by fitting fluorescence millipolarization (mP=P·10^−3, where P is polarization) as a function of Sxph concentration using the equation: P={(Pbound−Pfree) [Sxph]/(Kd+[Sxph])}+Pfree, where P is the polarization measured at a given Sxph concentration, Pfree is the […], and Pbound is the maximum polarization of Sxph bound by F-STX (Rossi and Taylor, Hansen et al.).

Molecule | […]G (kcal mol^−1) relative to RcSxph [kcal/mol]
B1 | -1.60
B2 | 0

same assay, conditions: […]G = RT ln (KdSxph mutant/KdSxph); T = 298K

Molecule | […]G (kcal mol^−1) relative to wild-type RcSxph [kcal/mol]
B2 | 0
B6 | -1.07
B3 | -0.53
B4 | 4.52
B7 | 1.21
B5 | 4.43

tested on: not listed separately; assay: Isothermal titration calorimetry (ITC) of STX into Sxph; assay type: binding; conditions: 25° C.
Experimental: ITC measurements were performed at 25° C. using a MicroCal PEAQ-ITC calorimeter (Malvern Panalytical). […]. This STX stock was diluted with the SEC buffer to prepare 100 μM or 300 μM STX solutions having a final buffer composition of 135 mM NaCl, 9 mM HEPES, pH 7.4. […]. The calorimetric experiment settings were: reference power, 5 μcal/s; spacing between injections, 150 s; stir speed 750 rpm; and feedback mode, high. Data were analyzed using MicroCal PEAQ-ITC Analysis Software (Malvern Panalytical) using a single binding site model. The heat of dilution from titrations of 100 μM STX in 135 mM NaCl, 9 mM HEPES, pH 7.4 into 135 mM NaCl, 9 mM HEPES, pH 7.4 was subtracted from each experiment to correct the baseline.

Molecule | […]G [kcal/mol] | […]H (kcal mol^−1), binding enthalpy [kcal/mol] | […]S (cal mol^−1 K^−1)
B1 | -11.8 ± 0.1 | -18.7 ± 0.2 | −23.2 ± 0.8
B2 | -12.3 ± 0.5 | -16.1 ± 0.2 | −12.7 ± 0.9
B6 | -12.2 ± 0.3 | -15.5 ± 0.3 | −10.5 ± 0.6
B7 | -10.3 ± 0.2 | -11.5 ± 0.0 | −4.2 ± 0.9

same assay, conditions: 25° C., listed as NpSxph WT

Molecule | […]H (kcal mol^−1), binding enthalpy [kcal/mol]
B1 | -18.7 ± 0.2

same assay, conditions: 25° C., listed as RcSxph WT

Molecule | […]H (kcal mol^−1), binding enthalpy [kcal/mol]
B2 | -16.1 ± 0.2

tested on: PtNaV1.4; assay: Two-electrode voltage clamp: Sxph rescue of PtNaV1.4 from STX block in Xenopus oocytes; assay type: cell-based, Phyllobates terribilis; conditions: [Sxph]:[STX] ratio, 100 nM STX

Molecule | Effective Rescue Ratio50 (ERR50)
B2 | 1.07±0.02
B6 | 0.81±0.01
B3 | 0.87±0.02
B4 | eliminated
B7 | > 4
